What was measured:
[1] = target: N-terminal hexa-histidine-tagged SrfB1 domain of surfactin synthetase, apo-form (His6-SrfB1) (Bacillus subtilis) (UniProt Q04747)
[2] = target: E. coli acyl carrier protein, apo-form (apo-ACP) (E. coli) (UniProt P0A6A8)
[3] = target: Lactobacillus casei D-Alanyl carrier protein, apo-form (apo-Dcp) (Lactobacillus casei)
[4] = target: Rhizobial NodF (wild-type) (Rhizobial)

Substance | [14C]-L-valine-holo-SrfB1 covalent complex formed after preincubation of apo-SrfB1 with Sfp and CoASH [1] [fold] | Km for apo-ACP, [3H]CoA radioassay [2] [µM] | apparent kcat of phosphopantetheinyl transfer, [3H]CoA radioassay [2] [min⁻¹] | radioactivity incorporated into the protein fraction, 36 hour in vitro phosphopantetheinylation [3] | [3H]phosphopantetheine incorporated, in vitro phosphopantetheinylation (ACP-NodF chimera) [dpm] | % conversion, in vitro phosphopantetheinylation with [3H]CoA [4] [%]
Bacillus subtilis Sfp (enzyme) | 14 | – | – | – | – | –
E. coli holo-acyl carrier protein synthase (ACPS) (enzyme) | – | < 1 | 10 | 1.04e+06 | 122000 | 47
